Measurements as given in publication PMC5552905, “Mechanisms of peptide sex pheromone regulation of conjugation in Enterococcus faecalis” (MicrobiologyOpen, 2017).

B1: His-tagged PrgX (natural protein, Enterococcus faecalis (plasmid pCF10), UniProt Q04114 1-317, looked up)
chain: MFKIGSVLKQIRQELNYHQIDLYSGIMSKSVYIKVEADSRPISVEELSKFSERLGVNFFEILNRAGMNTKSVNETGKEKLLISKIFTNPDLFDKNFQRIEPKRLTSLQYFSIYLGYISIAHHYNIEVPTFNKTITSDLKHLYDKRTTFFGIDYEIVSNLLNVLPYEEVSSIIKPMYPIVDSFGKDYDLTIQTVLKNALTISIMNRNLKEAQYYINQFEHLKTIKNISINGYYDLEINYLKQIYQFLTDKNIDSYLNAVNIINIFKIIGKEDIHRSLVEELTKISAKEKFTPPKEVTMYYENYVAIENNPIPEIKEQS
notes: PrgX, master transcription regulator and sex pheromone receptor encoded by the Enterococcus faecalis plasmid pCF10; also called HisPrgX; Apo-PrgX

Experiments:
[1] = target: the molecule itself; assay: SEC; Superdex 200 Hiload 16/600, 20 mmol/L Tris-HCl pH 8.0, 300 mmol/L NaCl; affinity purified HisPrgX, HisPrgX-C or HisPrgX-I loaded; calibrated with gel-filtration standards; no DNA
[2] = system: LT DNA (XBS1 and XBS2 operator sites), P Q promoter region; assay type: binding, Enterococcus faecalis (plasmid pCF10); conditions: for supershift of LT DNA by purified tetramers: SEC-purified PrgX-C or PrgX-I tetramers, LT probe containing both XBSs
From the text: The LT DNA template containing XBS1 and XBS2 sites (LT DNA, pCF10 sequence from nt 8029 to nt8185 (Hirt et al., 2005)) was PCR amplified from pCF10 using primers as described in. The XBS1 DNA template only has XBS1 site (pCF10 sequence 8029–8131nt) was made by annealing oligos ‐129/‐47‐F (5′[…] 3′) and −129/−47R (5′[…] 3′) to obtain double‐stranded DNA. The XBS2 DNA template only has the XBS2 site (pCF10 sequence from 8109 to 8290; −66 to +114 relative to the prgQ transcription initiation site), and was PCR amplified from pCF10 using primers as described in Caserta et al., 2012. In DNA templates with 5‐bp or 10‐bp insertions, sequence GTACC or […] was inserted between XBS1 and XBS2 sites and at a position of 6‐bp after the XBS1 site. DNA probes were labeled at the 3′‐ends with DIG‐11‐ddUTP using the DIG Gel Shift kit (Roche) by following the manufacturer's instructions. EMSA assays were performed in 20 μl reactions: DIG‐labeled DNA, purified proteins, 1 μg of poly‐[d(A‐T)], 0.1 μg of poly‐L‐lysine, 1 × reaction buffer (20 mmol L^−1 Tris‐HCl, pH 7.9, 0.1 mol L^−1 NaCl, 0.1 mmol L^−1 EDTA, 10% glycerol, 0.01 mol L^−1 MgCl2). The reactions were incubated at room temperature for 15 min and loaded onto 5% polyacrylamide gels in 1 × TBE buffer (Tris, Borate, EDTA, pH 7.9). After electrophoresis at 100 V for 1.5 h, the DNA–protein complexes and DNA probes were electrotransferred onto a nylon membrane (Roche) at 6 V for 2 h using the GENIE electrophoretic blotter (Idea Scientific). DIG‐labeled DNA fragments were visualized by an enzyme immunoassay (DIG Gel Shift Kit, Roche) following the manufacturer's instructions. […] For the experiments reported here the powdered form of the peptides were initially solubilized in pure DMF at 0.5 mg/ml, and then diluted 10‐fold in KPBS for use as a working stock solution, which was diluted into the EMSA reactions to a final peptide concentration of 40 nmol L^−1.
EMSA assays were performed using 8 fmol of digoxigenin‐labeled LT DNA probes with increasing amounts of PrgX protein. PrgX was preincubated for 5‐min at room temperature with 40 nmol L^−1 of C (a) or I (b) before adding LT DNA. PrgX concentrations: lanes 2 and 6: 38 nmol L^−1; lanes 3 and 7: 76 nmol L^−1; lanes 4 and 8: 190 nmol L^−1; lanes 5 and 9: 568 nmol L^−1. (c) Cartoon showing the predicted products formed by binding PrgX to LT DNA.

His-tagged PrgX = target: B1; assay: SPR; conditions: both partners purified

Molecule | stoichiometry N [1] | relative protein concentration for supershift / singly shifted probe [2] | supershift of LT DNA by purified tetramers [2] | Kd (His-tagged PrgX) [pM] | koff (His-tagged PrgX) [s⁻¹]
B1 | 2 | – | – | – | –
HisPrgX-C complex (complex, copies: 4 +) chain 1: MFKIGSVLKQIRQELNYHQIDLYSGIMSKSVYIKVEADSRPISVEELSKFSERLGVNFFEILNRAGMNTKSVNETGKEKLLISKIFTNPDLFDKNFQRIEPKRLTSLQYFSIYLGYISIAHHYNIEVPTFNKTITSDLKHLYDKRTTFFGIDYEIVSNLLNVLPYEEVSSIIKPMYPIVDSFGKDYDLTIQTVLKNALTISIMNRNLKEAQYYINQFEHLKTIKNISINGYYDLEINYLKQIYQFLTDKNIDSYLNAVNIINIFKIIGKEDIHRSLVEELTKISAKEKFTPPKEVTMYYENYVAIENNPIPEIKEQS chain 2: LVTLVFV | 4 | – | – | – | –
PrgX‐I: PrgX/iCF10 complex (tetramer), purified by nickel affinity and size exclusion chromatography (protein, left off: His tag, end not stated, kept) chain 1: MFKIGSVLKQIRQELNYHQIDLYSGIMSKSVYIKVEADSRPISVEELSKFSERLGVNFFEILNRAGMNTKSVNETGKEKLLISKIFTNPDLFDKNFQRIEPKRLTSLQYFSIYLGYISIAHHYNIEVPTFNKTITSDLKHLYDKRTTFFGIDYEIVSNLLNVLPYEEVSSIIKPMYPIVDSFGKDYDLTIQTVLKNALTISIMNRNLKEAQYYINQFEHLKTIKNISINGYYDLEINYLKQIYQFLTDKNIDSYLNAVNIINIFKIIGKEDIHRSLVEELTKISAKEKFTPPKEVTMYYENYVAIENNPIPEIKEQS chain 2: AITLIFI | – | complete supershifting at slightly lower protein concentrations than PrgX/C | nearly complete supershift to band II at extremely low PrgX concentrations | – | –
PrgX‐C: PrgX/cCF10 complex (tetramer), purified by nickel affinity and size exclusion chromatography (protein, left off: His tag, end not stated, kept) chain 1: MFKIGSVLKQIRQELNYHQIDLYSGIMSKSVYIKVEADSRPISVEELSKFSERLGVNFFEILNRAGMNTKSVNETGKEKLLISKIFTNPDLFDKNFQRIEPKRLTSLQYFSIYLGYISIAHHYNIEVPTFNKTITSDLKHLYDKRTTFFGIDYEIVSNLLNVLPYEEVSSIIKPMYPIVDSFGKDYDLTIQTVLKNALTISIMNRNLKEAQYYINQFEHLKTIKNISINGYYDLEINYLKQIYQFLTDKNIDSYLNAVNIINIFKIIGKEDIHRSLVEELTKISAKEKFTPPKEVTMYYENYVAIENNPIPEIKEQS chain 2: LVTLVFV | – | slightly more of the singly shifted probe is detected relative to PrgX/I complexes at equivalent protein concentrations | nearly complete supershift to band II at extremely low PrgX concentrations | – | –
AITLIFI (source: synthetic peptide, bought: New England Peptides) [iCF10 (I, inhibitor peptide)] | – | – | – | 0.152 | 2.09e-05
LVTLVFV (source: synthetic peptide, bought: New England Peptides) [cCF10 (C, clumping-inducing peptide, sex pheromone)] | – | – | – | 0.686 | 5.5e-05
